Data set [1] deals with T1, clostripain.
T1 construct: is a two-chain proteinase that can be isolated from Clostridium histolyticum; purchased Worthington LS001641
Put plainly: Clostripain cleavage, SDS-PAGE analysis. It is filed as in vitro ADME, Clostridium histolyticum. As to conditions: Clostridium histolyticum, clostripain (isolated protease), pH 7.6, 5 U clostripain/mg, 25° C.; for metabolised at 22 h: read-out: cleaved after 22 h. As for the experimental part:
(§1) Enzymatic digestion of PEP07843 and the three new variants was performed using clostripain from Worthington (No. LS001641) in 25 mM NaPi buffer pH 7.6, 150 mM NaCl, 1 mM CaAc, 2.5 mM DTT. Clostripain was dissolved freshly before initiation of the experiment.
(§2) In the following experiment, the clostripain amount was increased to 5 U/mg ABD variant, and the samples were incubated for 0, 1, 2, 4, 6, 8 and 22 h at 25° C. in a thermomixer with mild shaking at 600 rpm.
(§3) Reactions were stopped by addition of 4×SDS sample buffer followed by incubation for 15 min at 70° C. (for SDS PAGE analysis) or by addition of trifluoroacetic acid (TFA) to a final concentration of 0.3%, which lowers the pH to approximately 2, and freezing at −80° C. (for LC/MS analysis).
(§4) Controls were reactions without clostripain and omitting DTT which […] clostripain activity.
(§5) Analysis of samples incubated with clostripain for up to 22 h was performed by SDS-PAGE using NuPAGE 4-12% gels from Invitrogen (see FIG. 3). In FIG. 3, lane S indicates sharp molecular weight marker standard (molecular weights 3.5, 10, 15, 20, 30, 40, 50, 60, 80, 110 and 160 kDa), lane B indicates a blank sample with clostripain but no ABD variant, and lanes 0-22 indicate ABD variant samples taken at the indicated incubation times in hours.

The target of data set [2] is T2, clostripain (Hathewaya histolytica, UniProt P09870).
T2 construct: is a two-chain proteinase that can be isolated from Clostridium histolyticum; purchased Worthington LS001641
The data set can be described thus: Clostripain cleavage, SDS-PAGE analysis. It is filed as in vitro ADME, Clostridium histolyticum. As to conditions: 5 U clostripain/mg. As for the experimental part:
as §1, §2, §3, §4, §5

The nature of data set [3]: Circular dichroism analysis, variable temperature measurement. It counts as physicochemical. Here is the method: Secondary structure of ABD variants was analyzed by circular dichroism (CD) spectroscopy using a scan from 195-250 nm before and after the variable temperature measurement (see below). Purified albumin binding polypeptide variants were diluted in 1×PBS, to final concentration of 0.5 mg/ml. Circular dichroism (CD) analysis was performed on a Jasco J-810 spectropolarimeter in a cell with an optical path-length of 1 mm. Alpha helical proteins show typical minima at 208 and 222 nm.
Variable temperature measurement was used to determine the melting temperature, Tm. In these measurements, the absorbance was measured at 221 nm from 20° C. to 90° C., with a temperature slope of 5° C./min.
The melting temperatures of the ABD variants were calculated by determining the midpoint of the transtition in the CD vs. temperature plot.
The CD spectra before and after heat treatment were compared in order to detect potential heat denaturation of the proteins. […] FIGS. 2A and 2B show the CD spectra of the new ABD variants and of PEP07843 (SEQ ID NO:27) for comparison.
For orientation: Circular dichroism is widely used to follow secondary structure.

Data set [4] deals with human serum albumin (HSA) (Homo sapiens, UniProt P02768). The data set can be described thus: biochemical.
Experimental: Biosensor analysis on a Biacore2000 instrument (GE Healthcare) was performed with HSA (Albucult®, Novozymes), CSA (purified in-house from cynomolgus serum), RSA (Sigma-Aldrich, Cat. No. A6272) and MSA (Sigma-Aldrich, Cat. No. A3559) immobilized by amine coupling onto the carboxylated dextran layer of the surfaces of CM-5 chips (research grade; GE Healthcare) according to the manufacturer's recommendations.
ABD variants were used as analytes and were injected in duplicates over the chip at three analyte concentrations (2.5, 10 and 40 nM). The association phase was 5 min followed by a long dissociation phase (60 min) to account at least partially for the slow off-rate of the ABD variants. […] Therefore, all KD's are given as relative KD values only.
The results were analyzed with BiaEvaluation software (GE Healthcare). Curves of the blank surface and buffer injection were subtracted from the curves of the ligand surfaces.
The Biacore 2000 instrument has a technical limitation which hinders measurements of very high affinity. […] After subtraction of reference surface and buffer injection, curves were fitted to a 1:1 (Langmuir) binding model using BIAevaluation software with correction for mass transfer and with RUmax set as a local parameter.
Data set [5] addresses T3, cynomolgus serum albumin (CSA) (Macaca fascicularis, UniProt A2V9Z4).
T3 construct: CSA (purified in-house from cynomolgus serum); from tissue; host or cells: cynomolgus serum
Put plainly: Biacore analysis of binding to CSA. As to conditions: CSA immobilized, Biacore2000; relative KD only. (In SPR one partner is held on a chip, and binding of the other changes the refractive index at the surface.)

Data set [6] relates to T1, clostripain. Put plainly: Clostripain cleavage, LC/MS analysis. It counts as in vitro ADME, Clostridium histolyticum. The conditions noted are these: Clostridium histolyticum, clostripain (isolated protease), read-out: remaining % ABD variant; for remaining at 0.25 h: 15 min; for remaining at 0.5 h: 30 min; for remaining at 20 h: 1200 min. As for the experimental part:
as §1
(§6) In the first experiment, 0.2 U clostripain/mg ABD variant was incubated for up to 20 h at 25° C., but only a low level of cleavage was detected by SDS-PAGE and LC/MS analysis.
as §2, §3
(§7) LC/MS analyses were performed using an Agilent 1100 LC/MSD system, equipped with API-ESI and a single quadruple mass analyzer. 10 μl of each cleavage mixture was injected on a Zorbax 300SB-C8 Narrow-Bore column (2.1×150 mm, 3.5 μm, Agilent Technologies) at a flow-rate of 0.5 ml/min. Elution was performed using a linear gradient of 10-70% solution B for 15 min at 0.5 ml/min. The separation was performed at 30° C. The ion signal and the absorbance at 280 and 220 nm were monitored.
(§8) FIGS. 4 and 5 show the LC/MS analysis of ABD variant samples incubated for up to 20 h with 0.2 U and up to 22 h with 5 U respectively of clostripain per mg ABD variant. The main peak was integrated, and the area transformed to % of remaining intact ABD variant at t=0.
(§9) The main peak was integrated and the area transformed to % of remaining intact ABD at t=0. The LC/MS analysis described above was used for analysis.

The target in data set [7] is T2, clostripain. Put plainly: Clostripain cleavage, LC/MS analysis. It is filed as in vitro ADME, Clostridium histolyticum. Here is the method:
as §1, §6, §2, §3, §7, §8, §9

[8] abbreviates: pH 7.6, 0.2 U clostripain/mg, 120 min.
[9] abbreviates: pH 7.6, 5 U clostripain/mg, 2 h.

pKd: −log10 of the molar value. Read-outs that look alike come from different tables or passages of the source. Where no end group is shown, it is not given here.

T2 sequence (P09870 191-526): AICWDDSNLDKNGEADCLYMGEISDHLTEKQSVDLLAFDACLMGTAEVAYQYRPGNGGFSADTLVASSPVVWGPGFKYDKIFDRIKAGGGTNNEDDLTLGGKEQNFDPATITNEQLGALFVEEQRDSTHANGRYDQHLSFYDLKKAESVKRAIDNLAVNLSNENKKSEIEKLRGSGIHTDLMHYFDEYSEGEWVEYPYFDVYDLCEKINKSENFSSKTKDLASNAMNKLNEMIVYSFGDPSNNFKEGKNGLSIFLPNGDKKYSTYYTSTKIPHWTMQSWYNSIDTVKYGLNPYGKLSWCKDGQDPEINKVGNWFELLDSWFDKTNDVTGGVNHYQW
T2 sequence (P09870 51-181): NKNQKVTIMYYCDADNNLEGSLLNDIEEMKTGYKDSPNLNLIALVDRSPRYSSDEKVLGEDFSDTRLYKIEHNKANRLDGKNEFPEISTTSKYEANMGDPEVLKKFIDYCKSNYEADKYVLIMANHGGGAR
T3 sequence (A2V9Z4 25-608): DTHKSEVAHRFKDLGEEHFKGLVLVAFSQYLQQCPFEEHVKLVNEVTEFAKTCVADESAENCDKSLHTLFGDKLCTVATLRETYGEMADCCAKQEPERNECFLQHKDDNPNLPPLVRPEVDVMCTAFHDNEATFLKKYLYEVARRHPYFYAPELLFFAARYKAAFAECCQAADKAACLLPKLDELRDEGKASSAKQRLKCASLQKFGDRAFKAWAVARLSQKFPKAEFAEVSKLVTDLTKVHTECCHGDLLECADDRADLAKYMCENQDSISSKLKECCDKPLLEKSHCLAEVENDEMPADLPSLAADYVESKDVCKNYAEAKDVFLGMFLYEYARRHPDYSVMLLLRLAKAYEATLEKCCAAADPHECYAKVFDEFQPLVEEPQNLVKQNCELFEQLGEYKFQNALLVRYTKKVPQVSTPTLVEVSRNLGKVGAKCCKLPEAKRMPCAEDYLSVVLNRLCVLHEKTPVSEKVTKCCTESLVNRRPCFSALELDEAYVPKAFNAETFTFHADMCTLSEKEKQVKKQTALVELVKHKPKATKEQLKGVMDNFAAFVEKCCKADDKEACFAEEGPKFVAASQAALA
Chain of human serum albumin (HSA) (P02768 25-609): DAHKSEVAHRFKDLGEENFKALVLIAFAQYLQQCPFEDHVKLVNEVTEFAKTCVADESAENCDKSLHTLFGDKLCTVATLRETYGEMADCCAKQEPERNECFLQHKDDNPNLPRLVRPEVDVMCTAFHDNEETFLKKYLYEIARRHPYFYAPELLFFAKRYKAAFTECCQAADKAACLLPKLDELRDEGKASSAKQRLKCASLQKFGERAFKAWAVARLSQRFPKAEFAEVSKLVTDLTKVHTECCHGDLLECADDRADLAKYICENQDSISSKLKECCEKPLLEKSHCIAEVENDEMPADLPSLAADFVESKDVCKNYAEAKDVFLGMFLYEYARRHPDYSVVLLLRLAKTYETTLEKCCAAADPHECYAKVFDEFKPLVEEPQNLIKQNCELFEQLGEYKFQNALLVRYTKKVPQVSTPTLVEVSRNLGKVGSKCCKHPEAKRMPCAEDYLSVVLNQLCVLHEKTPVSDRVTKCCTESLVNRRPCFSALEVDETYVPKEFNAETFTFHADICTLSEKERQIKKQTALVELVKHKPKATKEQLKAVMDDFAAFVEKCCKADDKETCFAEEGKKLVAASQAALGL

For orientation: pKd means the negative decadic logarithm of the Kd, by convention in mol/L. Low values mean a large Kd, high ones a small Kd. For the sequence “GSSLAEAKEAANAELDSYGVSDFYKKLIDKAKTVEGVEALKDAILAALP [PEP12380]”, the metabolised at 22 h in the data set with clostripain [1] is ~50%. In addition, the “resistance to clostripain cleavage, comparison” value (shortened to “resistance”) with clostripain [2] is recorded as “highest level of resistance to cleavage”. Also, in the data set with clostripain [2] (25° C.), the “incubation time at which some cleavage was seen” value (“incubation time” below) is 6 to 8 h and the “cleaved after 22 h” value was ~50%. Also, the “thermal stability, comparison of variants” value in data set [3] is “highest thermal stability of the three variants”. In data set [4], this sequence gave a pKd of 11.12. This sequence also had a pKd in data set [5] of 10.96. In addition, in the data set with clostripain [6] (pH 7.6, 0.2 U clostripain/mg), the fraction remaining at 2 min was determined as 100%, the fraction remaining at 5 min was determined as 101%, the share remaining at 0.25 h came to 101% and the share remaining at 0.5 h was determined as 101%. Further, the share remaining at 20 h in the data set with clostripain [6] (pH 7.6, 0.2 U clostripain/mg) is 100%. Also, the fraction remaining at 2 h in the data set with clostripain [6] (setting [8]) is 100%. Moreover, in the data set on clostripain [6] (pH 7.6, 5 U clostripain/mg), the fraction remaining at 1 h came out at 96%, the share remaining at 4 h stood at 84%, the amount remaining at 6 h was determined as 77% and the share remaining at 8 h was determined as 69%. Further, in the data set on clostripain [6] (pH 7.6, 5 U clostripain/mg), the amount remaining at 22 h came to 30%. Further, the share remaining at 2 h in the data set on clostripain [6] (setting [9]) came to 93%. The “remaining % ABD variant” value in the data set with clostripain [7] (0.2 U clostripain/mg, 0 min) is 100%. Moreover, the “remaining % ABD variant” value with clostripain [7] (5 U clostripain/mg, 0 h) was 100%. Besides, the “protease stability, comparison” value with clostripain [7] (as compared to PEP12379, PEP12381 and PEP07843) is reported as “superior properties with respect to protease stability”. Further, the “increase of degradation products over time, comparison” value with clostripain [7] (both low and high clostripain concentrations) is “lowest increase of degradation products over time”.

Consider “GSSLAEAKEAANAELDSYGVSDFYKNLIDKAKTVEGVEALKDAILAALP [PEP12379]”, for which the metabolised at 22 h in the data set on clostripain [1] is ~90%. Besides, in the data set with clostripain [2], the “resistance” value was “more resistant to clostripain cleavage as compared to PEP07843”. Moreover, in the data set with clostripain [2] (25° C.), the “incubation time” value was in the range of 4 to 8 h and the “cleaved after 22 h” value was ~90%. Also, in the data set on clostripain [6] (pH 7.6, 0.2 U clostripain/mg), the fraction remaining at 2 min amounted to 100%, the share remaining at 5 min was 101%, the fraction remaining at 0.25 h came to 101% and the share remaining at 0.5 h was determined as 99%. The share remaining at 20 h in the data set on clostripain [6] (pH 7.6, 0.2 U clostripain/mg) worked out at 96%. Further, the fraction remaining at 2 h in the data set on clostripain [6] (setting [8]) stood at 99%. Also, in the data set with clostripain [6] (pH 7.6, 5 U clostripain/mg), the fraction remaining at 1 h was found to be 92%, the amount remaining at 4 h was determined as 71%, the fraction remaining at 6 h amounted to 58% and the amount remaining at 8 h turned out to be 47%. The share remaining at 22 h in the data set on clostripain [6] (pH 7.6, 5 U clostripain/mg) was found to be 4%. In the data set with clostripain [6] (setting [9]), the fraction remaining at 2 h was determined as 85%. Besides, in the data set with clostripain [7] (0.2 U clostripain/mg, 0 min), the “remaining % ABD variant” value stood at 100%. Besides, the “remaining % ABD variant” value with clostripain [7] (5 U clostripain/mg, 0 h) is listed as 100%.

Turning to “GSSLAEAKEAANAELDSYGVSDFYKRLIDKAKTVEGVEALKDAILAALP [PEP07843, reference compound]”, the metabolised with clostripain [1] (4-22 h, read-out: cleaved after 4-22 h) was found to be 100%. Besides, the metabolised at 2 h in the data set on clostripain [1] (2 h, read-out: cleaved after 2 h) is ~75%. In addition, the “cleaved after 4-22 h” value with clostripain [2] (25° C., 4-22 h) came out at 100%. In addition, the “cleaved after 2 h” value with clostripain [2] (25° C., 2 h) is on record as ~75%. This sequence had a pKd in data set [4] of 11.17. The negative-log Kd (pKd) in data set [5] was 11.01. Further, in the data set on clostripain [6] (pH 7.6, 0.2 U clostripain/mg), the amount remaining at 2 min was determined as 100%, the fraction remaining at 5 min came to 101%, the fraction remaining at 0.25 h was 100% and the fraction remaining at 0.5 h was 100%. Moreover, the fraction remaining at 20 h in the data set with clostripain [6] (pH 7.6, 0.2 U clostripain/mg) amounted to 54%. In the data set on clostripain [6] (pH 7.6, 5 U clostripain/mg), the amount remaining at 1 h is 46%, the amount remaining at 4 h was found to be 0%, the fraction remaining at 6 h is 0% and the fraction remaining at 8 h was found to be 0%. Also, in the data set with clostripain [6] (pH 7.6, 5 U clostripain/mg), the amount remaining at 22 h was found to be 0%. Moreover, the “remaining % ABD variant” value with clostripain [7] (0.2 U clostripain/mg, 0 min) is given as 100%. For the same sequence, in the data set with clostripain [7] (0.2 U clostripain/mg, 120 min), the “remaining % ABD variant” value is reported as 94%. Besides, in the data set with clostripain [7] (5 U clostripain/mg, 0 h), the “remaining % ABD variant” value is 100%. Also, the “remaining % ABD variant” value with clostripain [7] (5 U clostripain/mg, 2 h) is 15%.

Consider “GSSLAEAKEAANAELDSYGVSDFYKSLIDKAKTVEGVEALKDAILAALP [PEP12381]”, for which the metabolised at 22 h in the data set with clostripain [1] was ~100%. Further, the “resistance” value in the data set with clostripain [2] is on record as “more resistant to clostripain cleavage as compared to PEP07843”. In the data set with clostripain [2] (25° C.), the “incubation time” value is 4 to 8 h and the “cleaved after 22 h” value is on record as ~100%. In the data set on clostripain [6] (pH 7.6, 0.2 U clostripain/mg), the share remaining at 2 min was 101%, the fraction remaining at 5 min is 100%, the share remaining at 0.25 h was found to be 100% and the share remaining at 0.5 h turned out to be 100%. Moreover, in the data set on clostripain [6] (pH 7.6, 0.2 U clostripain/mg), the amount remaining at 20 h turned out to be 97%. Further, the amount remaining at 2 h in the data set with clostripain [6] (setting [8]) stood at 99%. In the data set on clostripain [6] (pH 7.6, 5 U clostripain/mg), the share remaining at 1 h is 91%, the amount remaining at 4 h was 60%, the share remaining at 6 h is 44% and the share remaining at 8 h was 31%. Also, the fraction remaining at 22 h with clostripain [6] (pH 7.6, 5 U clostripain/mg) is 0%. Further, the amount remaining at 2 h with clostripain [6] (setting [9]) is 79%. In addition, in the data set with clostripain [7] (0.2 U clostripain/mg, 0 min), the “remaining % ABD variant” value turned out to be 100%. Besides, the “remaining % ABD variant” value with clostripain [7] (5 U clostripain/mg, 0 h) was found to be 100%.

The values above are taken from patent US10155792B2, “Albumin binding polypeptide” (priority 2012, dated 2018).
